Measurements from the supplement of paper PMC9112550, “Optimization of the antimicrobial peptide Bac7 by deep mutational scanning” (BMC Biology, 2022).

System: Escherichia coli TOP10
Test: shrunken log2 fold change of peptide-encoding DNA abundance (4.5 h post-induction vs induction); higher = less antimicrobial activity (less host growth inhibition)
Details: time post-induction: 4.5 h; library: site-saturation at positions 5, 18, 19, 20
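Also: peptides expressed intracellularly from a pBAD plasmid library in pooled LB shake-flask culture, induced with 0.3% L-arabinose, DNA abundance read by NGS, three biological replicates, DESeq2 with apeglm shrinkage.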

Q: For RRIRERPPRLPRPRPRPKWLPRP, which “shrunken log2 fold change” value is on record?
A: 0.226

Q: For RRIRPRPPRLPRPRPRPCESPRP, which “shrunken log2 fold change” value is on record?
A: 0.183

Q: RRIRNRPPRLPRPRPRPFHQPRP was tested. Which “shrunken log2 fold change” value did it give?
A: 0.151

Q: RRIRCRPPRLPRPRPRPIVRPRP was tested. Which “shrunken log2 fold change” value did it give?
A: -0.793

Q: How did the “shrunken log2 fold change” value turn out when RRIRDRPPRLPRPRPRPPSLPRP was run?
A: -0.128

Q: RRIRVRPPRLPRPRPRPLNIPRP was tested. Which “shrunken log2 fold change” value did it give?
A: -0.0458

Q: Which “shrunken log2 fold change” value does the source give for RRIRQRPPRLPRPRPRPAVQPRP here?
A: 0.013

Q: Which “shrunken log2 fold change” value does the source give for RRIRVRPPRLPRPRPRPEFYPRP here?
A: -0.251

Q: With RRIRRRPPRLPRPRPRPDNTPRP as the sequence, how does the “shrunken log2 fold change” value read?
A: 0.876

Q: RRIRHRPPRLPRPRPRPTHLPRP was tested. Which “shrunken log2 fold change” value did it give?
A: -0.102

Q: For RRIRTRPPRLPRPRPRPAQNPRP, which “shrunken log2 fold change” value is on record?
A: 0.323

Q: RRIRARPPRLPRPRPRPDHHPRP was tested. Which “shrunken log2 fold change” value did it give?
A: -0.201

Q: How did the “shrunken log2 fold change” value turn out when RRIRPRPPRLPRPRPRPKARPRP was run?
A: 0.691

Q: For RRIRYRPPRLPRPRPRPMIVPRP, which “shrunken log2 fold change” value is on record?
A: -0.209

Q: RRIRVRPPRLPRPRPRPQYVPRP was tested. Which “shrunken log2 fold change” value did it give?
A: -0.262

Q: With RRIRMRPPRLPRPRPRPNYFPRP as the sequence, how does the “shrunken log2 fold change” value read?
A: 0.0511

Q: Which “shrunken log2 fold change” value does the source give for RRIRMRPPRLPRPRPRPEFRPRP here?
A: 0.275

Q: How did the “shrunken log2 fold change” value turn out when RRIRYRPPRLPRPRPRPNMWPRP was run?
A: -0.391

Q: With RRIRWRPPRLPRPRPRPWQAPRP as the sequence, how does the “shrunken log2 fold change” value read?
A: 0.00325

Q: How did the “shrunken log2 fold change” value turn out when RRIRMRPPRLPRPRPRPFPYPRP was run?
A: -0.23

Q: How did the “shrunken log2 fold change” value turn out when RRIRERPPRLPRPRPRPMQSPRP was run?
A: 0.0874

Q: How did the “shrunken log2 fold change” value turn out when RRIRRRPPRLPRPRPRPYLKPRP was run?
A: -0.936

Q: With RRIRARPPRLPRPRPRPAKLPRP as the sequence, how does the “shrunken log2 fold change” value read?
A: 0.196

Q: For RRIRRRPPRLPRPRPRPAVGPRP, which “shrunken log2 fold change” value is on record?
A: 0.344

Q: With RRIRPRPPRLPRPRPRPIVQPRP as the sequence, how does the “shrunken log2 fold change” value read?
A: -0.135

Q: Which “shrunken log2 fold change” value does the source give for RRIRQRPPRLPRPRPRPRANPRP here?
A: 0.367

Q: For RRIRMRPPRLPRPRPRPDKWPRP, which “shrunken log2 fold change” value is on record?
A: 0.934

Q: For RRIRHRPPRLPRPRPRPHYDPRP, which “shrunken log2 fold change” value is on record?
A: -0.257

Q: How did the “shrunken log2 fold change” value turn out when RRIRHRPPRLPRPRPRPCATPRP was run?
A: 0.0959

Q: RRIRGRPPRLPRPRPRPQTVPRP was tested. Which “shrunken log2 fold change” value did it give?
A: 0.19

Q: Which “shrunken log2 fold change” value does the source give for RRIRFRPPRLPRPRPRPMMKPRP here?
A: -0.0975

Q: How did the “shrunken log2 fold change” value turn out when RRIRWRPPRLPRPRPRPWRPPRP was run?
A: 0.178

Q: For RRIRFRPPRLPRPRPRPSPKPRP, which “shrunken log2 fold change” value is on record?
A: 0.188

Q: For RRIRERPPRLPRPRPRPGGDPRP, which “shrunken log2 fold change” value is on record?
A: 0.0586

Q: For RRIRPRPPRLPRPRPRPLHHPRP, which “shrunken log2 fold change” value is on record?
A: -0.0808

Q: Which “shrunken log2 fold change” value does the source give for RRIRMRPPRLPRPRPRPSCWPRP here?
A: 0.594

Q: RRIRWRPPRLPRPRPRPSFGPRP was tested. Which “shrunken log2 fold change” value did it give?
A: -0.0482

Q: RRIRRRPPRLPRPRPRPMMVPRP was tested. Which “shrunken log2 fold change” value did it give?
A: -0.00292

Q: With RRIRNRPPRLPRPRPRPSTSPRP as the sequence, how does the “shrunken log2 fold change” value read?
A: -0.36

Q: Which “shrunken log2 fold change” value does the source give for RRIRKRPPRLPRPRPRPKCWPRP here?
A: 0.382

Q: RRIRKRPPRLPRPRPRPKKAPRP was tested. Which “shrunken log2 fold change” value did it give?
A: 0.0547

Q: For RRIRARPPRLPRPRPRPELFPRP, which “shrunken log2 fold change” value is on record?
A: 0.7

Q: For RRIRERPPRLPRPRPRPYEQPRP, which “shrunken log2 fold change” value is on record?
A: -0.395

Q: Which “shrunken log2 fold change” value does the source give for RRIRNRPPRLPRPRPRPNPQPRP here?
A: 0.166

Q: RRIRHRPPRLPRPRPRPMLSPRP was tested. Which “shrunken log2 fold change” value did it give?
A: -0.0786

Q: With RRIRWRPPRLPRPRPRPKLYPRP as the sequence, how does the “shrunken log2 fold change” value read?
A: 0.113

Q: With RRIRLRPPRLPRPRPRPAVPPRP as the sequence, how does the “shrunken log2 fold change” value read?
A: 0.3

Q: RRIRERPPRLPRPRPRPIYQPRP was tested. Which “shrunken log2 fold change” value did it give?
A: -0.394

Q: RRIRTRPPRLPRPRPRPRKMPRP was tested. Which “shrunken log2 fold change” value did it give?
A: -0.107

Q: RRIRARPPRLPRPRPRPVIQPRP was tested. Which “shrunken log2 fold change” value did it give?
A: 0.0904
